Values quoted from earlier work in publication PMC10530501.

Assays:
C1q (Homo sapiens) = C1q (Homo sapiens) (UniProt P02745)
TLR4 (Homo sapiens) = TLR4 (Homo sapiens) (UniProt O00206); experiment: SPR
UniProt O00206, sequence (O00206 24-631): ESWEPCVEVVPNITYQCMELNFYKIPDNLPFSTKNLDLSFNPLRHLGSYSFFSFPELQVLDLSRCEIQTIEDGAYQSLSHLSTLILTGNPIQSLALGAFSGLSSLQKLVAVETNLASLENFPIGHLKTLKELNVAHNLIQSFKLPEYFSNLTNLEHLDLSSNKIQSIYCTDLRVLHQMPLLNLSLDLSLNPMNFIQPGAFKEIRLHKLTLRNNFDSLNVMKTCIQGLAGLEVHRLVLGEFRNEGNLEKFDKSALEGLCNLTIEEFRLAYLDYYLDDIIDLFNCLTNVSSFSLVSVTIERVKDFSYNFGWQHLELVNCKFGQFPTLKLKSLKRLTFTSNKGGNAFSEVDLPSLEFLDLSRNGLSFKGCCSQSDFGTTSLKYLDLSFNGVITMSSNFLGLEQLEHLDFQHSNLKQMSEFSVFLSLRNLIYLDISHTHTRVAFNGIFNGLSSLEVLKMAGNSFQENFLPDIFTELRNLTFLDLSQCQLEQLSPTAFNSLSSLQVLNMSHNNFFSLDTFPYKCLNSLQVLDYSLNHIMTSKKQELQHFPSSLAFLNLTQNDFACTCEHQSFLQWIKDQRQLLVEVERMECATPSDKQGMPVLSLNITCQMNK

UniProt P02745, sequence (P02745 23-245, chain 1 of 3): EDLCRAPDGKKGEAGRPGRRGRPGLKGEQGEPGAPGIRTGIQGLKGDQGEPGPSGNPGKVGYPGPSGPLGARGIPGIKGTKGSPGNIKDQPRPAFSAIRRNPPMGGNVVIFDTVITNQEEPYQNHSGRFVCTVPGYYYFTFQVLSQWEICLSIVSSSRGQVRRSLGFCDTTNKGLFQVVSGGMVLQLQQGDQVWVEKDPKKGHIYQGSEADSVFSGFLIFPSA
UniProt P02745, sequence (P02746 28-253, chain 2 of 3, further chain): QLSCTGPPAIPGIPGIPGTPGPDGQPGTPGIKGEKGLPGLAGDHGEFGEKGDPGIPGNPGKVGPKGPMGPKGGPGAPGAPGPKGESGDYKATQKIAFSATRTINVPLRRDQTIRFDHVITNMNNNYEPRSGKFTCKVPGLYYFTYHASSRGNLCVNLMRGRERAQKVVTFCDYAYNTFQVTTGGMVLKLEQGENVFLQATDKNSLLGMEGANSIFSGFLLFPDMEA
UniProt P02745, sequence (P02747 29-245, chain 3 of 3, further chain): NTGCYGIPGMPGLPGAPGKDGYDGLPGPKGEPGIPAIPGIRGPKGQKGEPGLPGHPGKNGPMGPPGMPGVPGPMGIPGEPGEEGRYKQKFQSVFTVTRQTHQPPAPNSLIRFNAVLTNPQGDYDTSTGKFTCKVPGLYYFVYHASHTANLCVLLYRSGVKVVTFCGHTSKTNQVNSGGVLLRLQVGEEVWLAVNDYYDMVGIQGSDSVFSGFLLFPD

Substance | Kd (C1q (Homo sapiens)) | Kd (TLR4 (Homo sapiens))
HMGB1 (from UniProt P09429) | 200 nM | 
pCTS-L (from UniProt P07711) |  | 20.2 nM
